Measurements as given in patent US20190309094A1 (Y BIOLOGICS, published 2019).
Numbering of substitutions follows the chain as printed.

B1: UCHT1 (antibody, V domains shown)
VH: EVQLQQSGPELVKPGPSMKISCKASGYSFTGYTMNWVKQSHGKNLEWMGLINPYKGVSTYNQKFKDKATLTVDKSSSTAYMELLSLTSEDSAVYYCARSGYYGDSDWYFDVWGQGTTLTVFS
VL: DIQMTQTTSSLSASLGDRVTISCRASQDIRNYLNWYQQKPDGTVKLLIYYTSRLHSGVPSKFSGSGSGTDYSLTISNLEQEDIATYFCQQGNTLPWTFAGGTKLEIKR
notes: A bought antibody (BioLegend); also called parental anti-CD3 antibody
B2: ACE-05-VL2 (other)
heavy: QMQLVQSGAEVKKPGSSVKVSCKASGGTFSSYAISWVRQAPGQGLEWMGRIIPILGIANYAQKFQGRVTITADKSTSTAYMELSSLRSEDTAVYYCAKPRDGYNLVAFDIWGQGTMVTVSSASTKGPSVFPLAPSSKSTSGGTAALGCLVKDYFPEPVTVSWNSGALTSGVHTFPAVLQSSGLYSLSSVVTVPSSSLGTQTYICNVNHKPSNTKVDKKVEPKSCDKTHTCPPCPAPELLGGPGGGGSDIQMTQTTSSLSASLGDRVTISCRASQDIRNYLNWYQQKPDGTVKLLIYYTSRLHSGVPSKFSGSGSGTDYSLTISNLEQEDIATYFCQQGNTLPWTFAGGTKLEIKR
light: QLVLTQPPSVSGAPGQRVTISCTGSSSNIGAGYDVHWYQQLPGAAPKLLIYGDINRPSGVPDRFSGSKSGISASLAITGLQAEDEADYYCQSYDSSLSGGVFGGGTKLTVLRTVAAPSVFIFPPSDEQLKSGTASVVCLLNNFYPREAKVQWKVDNALQSGNSQESVTEQDSKDSTYSLSSTLTLSKADYEKHKVYACEVTHQGLSSPVTKSFNRGEC
B3: ACE-09 (bispecific antibody)
heavy 1: not shown
heavy 2: not shown
light: B2 light with T113S
notes: also called ACE-09-VH + ACE-09-VL + ACE-09-LC
B4: ACE-05 (bispecific antibody)
heavy 1: not shown
heavy 2: not shown
light: B2 light
notes: also called ALiCE; ACE-05-VH + ACE-05-VL + ACE-05-LC

Legend:
CD3 (Sino Biological) = assay: ELISA on CD3, curve fit
Chain of CD3 (Sino Biological) (P07766 23-126, chain 1 of 2): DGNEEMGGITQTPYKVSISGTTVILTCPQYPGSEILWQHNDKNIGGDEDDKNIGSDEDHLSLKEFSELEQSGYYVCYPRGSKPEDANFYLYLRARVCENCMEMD
Chain of CD3 (Sino Biological) (P04234 22-105, chain 2 of 2, further chain): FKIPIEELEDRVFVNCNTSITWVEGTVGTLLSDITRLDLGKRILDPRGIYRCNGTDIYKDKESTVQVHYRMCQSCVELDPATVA
Method: Next day, plate was washed once with 200 μl of PBST, and then a surface blocking was performed at room temperature with 5% skim milk for 1-2 hours. […] Each well was then washed three times with 200 μl of PB ST to remove unbound samples. Horseradish peroxidase (HRP)-conjugated anti-human IgG (Fab specific) antibodies (Sigma, USA) were added to wells at a ratio of 1:1000 for a reaction at room temperature. After three times of washing with 200 ul of PBST, a color reaction of HRP was induced using TMB solution (GEhealthcare, USA) in a volume of 100 μl/well. The reaction was terminated by using a stop solution (2.5 M H₂SO₄, 100 μl/well). A spectrophotometer was used to measure the absorbance at a wavelength of A450 to calculate the binding affinity.

PD-L1 expressed on cells = PD-L1 expressed on cells (UniProt Q9NZQ7 19-290, limits assumed); assay: cell-based or functional assay
Chain of PD-L1 expressed on cells (Q9NZQ7 19-290 limits assumed): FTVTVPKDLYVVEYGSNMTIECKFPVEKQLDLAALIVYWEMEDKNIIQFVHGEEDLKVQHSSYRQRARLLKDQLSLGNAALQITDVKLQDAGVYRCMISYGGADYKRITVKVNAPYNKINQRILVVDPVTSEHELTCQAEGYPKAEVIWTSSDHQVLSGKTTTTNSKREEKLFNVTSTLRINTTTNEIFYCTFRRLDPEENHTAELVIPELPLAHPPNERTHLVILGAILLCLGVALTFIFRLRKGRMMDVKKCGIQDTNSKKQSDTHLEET

Binder	Bmax (CD3 (Sino Biological))	EC50 (read off the curve), PD-1/PD-L1 Blockade Bioassay (PD-L1 expressed on cells)
B1	3.67 OD 450 nm	
B2		~0.09 µg/mL
B3	4.04 OD 450 nm	
B4	3.97 OD 450 nm	
